Experiments:
VPS4A-FLAG [1] = experiment: Anti-FLAG co-immunoprecipitation from co-transfected HEK293FT cells; assay type: cell-based, human; details: 48 h post-transfection, immunoblot
Source text: (§1) All eukaryotic expression plasmids for pUL71 and pUL71 homologues were generated in the backbone of pEF1/Myc-His C expression vector (Invitrogen) by cloning using restriction enzymes. The open reading frame (ORF) of full-length UL71 was amplified from the HCMV wild-type BAC TB40-BAC4 using the primers ex_71_for and ex_71_rev and was the basis for all further UL71 mutants. C-terminally truncated variants UL71_1–326, UL71_1–320 and UL71_1–314 were generated using primers ex_71_for and respective reverse primers UL71_1–326_rev, UL71_1–320_rev and UL71_1–314_rev. Point mutants PPAA (P315A+P318A), V317D, P315A and P318A of the vMIM2 of pUL71 were generated by fusion PCR. For the example of the PPAA mutant, a first fragment UL71_1-326-PPAA was amplified with the primers ex_71_for and UL71 _1–326_P315A/P318A_rev. A second fragment UL71_320–361 was amplified by using primers UL71_1–361_P315A/P318A-for and ex_71_rev. The final PCR product UL71-PPAA was amplified by using fragment UL71_1-326-PPAA as template and ex_71_for and fragment UL71_320–361 as primers. UL71-V317D, UL71-P315A and UL71-P318A were generated similarly manner using the primers UL71 _1–326_V317D_rev, UL71 _1–326_P315A_rev and UL71 _1–326_P318A_rev, respectively, to generate the first fragment. […]

VPS4A-FLAG [2] = experiment: Co-transfection localisation, immunofluorescence, COS-7 cells; assay type: cell-based, human; details: COS-7, 20–24 h post-transfection
Source text: as §1

pUL71 = experiment: Co-transfection localisation of VPS4A-FLAG variants with pUL71, COS-7 cells; assay type: cell-based, HCMV; details: COS-7, co-transfection
Source text: Human VPS4A-FLAG, C-terminally fused with the FLAG-tag epitope, was expressed from expression vector pBJ5-Vps4Flag (gift from A. Calistri, University of Padova, Italy). Cloning of this vector is described in detail in [100]. The VPS4-FLAGΔMIT variant, comprising VPS4A residues 119–437, was generated from pBJ5-Vps4Flag using primers bex_VPS4aa119-437 and Flag+Stop_rev. Point mutant VPS4A-FLAG-V13D was amplified using primers Vps4A-V13D_for and Flag+Stop_rev. Variant VPS4-FLAG-L64D was generated by fusion PCR where primers Vps4_for and Vps4A-L64D_rev generated a fragment that was used as forward primer in a second PCR together with primer Flag+Stop_rev to generate full-length VPS4A. All VPS4A variants were cloned using restriction enzymes into backbone vector pEF1/Myc-His C.
Intracellular localisation studies after transient expression were performed in COS-7 cells that were seeded with 3.3×10^4 cells per well on glass coverslips in a 24-well plate. The next day, cells were transfected with the respective DNAs by using Lipofectamine LTX (Invitrogen) according to the manufacturer’s protocol. Between 20 to 24 hours post-transfection, cells were fixed with 4% (v/v) paraformaldehyde (PFA) in PBS for 10 min at 4°C and prepared for localisation analysis by using indirect immunofluorescence staining.

Row | Molecule | co-precipitation by VPS4A-FLAG (VPS4A-FLAG [1]) | recruitment of VPS4A-FLAG to juxtanuclear compartments (VPS4A-FLAG [2]) | association of VPS4A variant with pUL71 at juxtanuclear compartments (pUL71)
1 | HHV6 pUL44: HA-tagged pUL71 homologue from HHV6 (pU44) (protein, left off: HA, C-terminal, kept) MGNCFRRLSLFGQPTQAKYEMLCSSDDLETEELTYFLDMTYKDFGVYQNDIISHQKDTETMKTLLGLLPMYKKTKLRHTVMERCLSNCPNHVKDALCVELMKAEKILQTMDVVFMKTLIGEFSMCTDNLNQLLNKFATDQSTLSDVEKINSLIEIDGENSKRLLVELDPILHEETGLYQALPNVVTEAPSEKVKSIRVESEGESV | bind efficiently to co-transfected VPS4A-FLAG | it is recruited | –
2 | HSV-1 pUL51: HA-tagged pUL71 homologue from HSV-1 (pUL51) (protein, left off: HA, C-terminal, kept) MASLLGAICGWGARPEEQYEMIRAAVPPSEAEPRLQEALAVVNALLPAPITLDDALGSLDDTRRLVKARALARTYHACMVNLERLARHHPGFEAPTIDGAVAAHQDKMRRLADTCMATILQMYMSVGAADKSADVLVSQAIRSMAESDVVMEDVAIAERALGLSAFGVAGGTRSGGIGVTEAPSLGHPHTPPPEVTLAPAARNGDALPDPKPESCPRVSVPRPTASPTAPRPGPSRAAPCVLGQ | do not | not recruited to juxtanuclear membranes | –
3 | VPS4A-FLAG-V13D: FLAG-tagged VPS4A with V13D substitution that prevents binding to MIM2 (protein, UniProt Q9UN37 1-437, looked up, variant V13D, FLAG tag) Vacuolar protein …: MTTSTLQKAIDLDTKATEEDKAKNYEEALRLYQHAVEYFLHAIKYEAHSDKAKESIRAKCVQYLDRAEKLKDYLRSKEKHGKKPVKENQSEGKGSDSDSEGDNPEKKKLQEQLMGAVVMEKPNIRWNDVAGLEGAKEALKEAVILPIKFPHLFTGKRTPWRGILLFGPPGTGKSYLAKAVATEANNSTFFSVSSSDLMSKWLGESEKLVKNLFELARQHKPSIIFIDEVDSLCGSRNENESEAARRIKTEFLVQMQGVGNNNDGTLVLGATNIPWVLDSAIRRRFEKRIYIPLPEEAARAQMFRLHLGSTPHNLTDANIHELARKTEGYSGADISIIVRDSLMQPVRKVQSATHFKKVCGPSRTNPSMMIDDLLTPCSPGDPGAMEMTWMDVPGDKLLEPVVCMSDMLRSLATTRPTVNADDLLKVKKFSEDFGQES | – | – | prevents association
4 | VPS4A(L64D)-FLAG: FLAG-tagged VPS4A with L64D substitution that prevents binding to MIM1 (protein, UniProt Q9UN37 1-437, looked up, variant L64D, FLAG tag) Vacuolar protein …: MTTSTLQKAIDLVTKATEEDKAKNYEEALRLYQHAVEYFLHAIKYEAHSDKAKESIRAKCVQYDDRAEKLKDYLRSKEKHGKKPVKENQSEGKGSDSDSEGDNPEKKKLQEQLMGAVVMEKPNIRWNDVAGLEGAKEALKEAVILPIKFPHLFTGKRTPWRGILLFGPPGTGKSYLAKAVATEANNSTFFSVSSSDLMSKWLGESEKLVKNLFELARQHKPSIIFIDEVDSLCGSRNENESEAARRIKTEFLVQMQGVGNNNDGTLVLGATNIPWVLDSAIRRRFEKRIYIPLPEEAARAQMFRLHLGSTPHNLTDANIHELARKTEGYSGADISIIVRDSLMQPVRKVQSATHFKKVCGPSRTNPSMMIDDLLTPCSPGDPGAMEMTWMDVPGDKLLEPVVCMSDMLRSLATTRPTVNADDLLKVKKFSEDFGQES | – | – | efficiently recruited by pUL71
